# Assay results reported in US20130109581A1, “POSITIVELY CHARGED SPECIES AS BINDING REAGENTS IN THE SEPARATION OF PROTEIN AGGREGATES FROM MONOMERS” (priority 2009, published 2013).
# Molecular target: Abeta (1-42) aggregates from Alzheimer's Disease Brain Homogenate (human) (UniProt P05067)
# Test: MPA, AD brain homogenate in plasma, Abeta(1-42) ELISA
substance,measurement,value
biotinylated PSR1 (+++A+A) on streptavidin magnetic beads,limit of detection,3.8 mL/assay
